# Patent publication US20110311550A1
# Legend:
# Experiment in all cases: ELISA, lectin-captured E1E2 lysate, Ab 1 ug/ml
# [1] = target: E1E2 complex (H77) with E1 mutation L258A (HCV genotype 1a, isolate H77) (UniProt P27958)
# [2] = target: E1E2 complex (H77) with E1 mutation G354A (HCV genotype 1a, isolate H77) (UniProt P27958)
# [3] = target: E1E2 complex (H77) with E1 mutation P224A (HCV genotype 1a, isolate H77) (UniProt P27958)
# [4] = target: E1E2 complex (H77) with E2 mutation F442A (HCV genotype 1a, isolate H77) (UniProt P27958)
# [5] = target: E1E2 complex (H77) with E2 mutation N448A (HCV genotype 1a, isolate H77) (UniProt P27958)
# [6] = target: E1E2 complex (H77) with E1 mutation N305A/N209A (HCV genotype 1a, isolate H77) (UniProt P27958)
# [7] = target: E1E2 complex (H77) with E1 mutation F291A (HCV genotype 1a, isolate H77) (UniProt P27958)
# [8] = target: E1E2 complex (H77) with E1 mutation G282A (HCV genotype 1a, isolate H77) (UniProt P27958)
# [9] = target: E1E2 complex (H77) with E2 mutation G436A (HCV genotype 1a, isolate H77) (UniProt P27958)
# [10] = target: E1E2 complex (H77) with E1 mutation R339A (HCV genotype 1a, isolate H77) (UniProt P27958)
# [11] = target: E1E2 complex (H77) with E2 mutation G634A (HCV genotype 1a, isolate H77) (UniProt P27958)
# [12] = target: E1E2 complex (H77) with E2 mutation Y618A (HCV genotype 1a, isolate H77) (UniProt P27958)
# [13] = target: E1E2 complex (H77) with E1 mutation G350A (HCV genotype 1a, isolate H77) (UniProt P27958)
# [14] = target: E1E2 complex (H77) with E1 mutation Y192A (HCV genotype 1a, isolate H77) (UniProt P27958)
# [15] = target: E1E2 complex (H77) with E1 mutation M322A (HCV genotype 1a, isolate H77) (UniProt P27958)
# [16] = target: E1E2 complex (H77) with E1 mutation N305A/N325A (HCV genotype 1a, isolate H77) (UniProt P27958)
# [17] = target: E1E2 complex (H77) with E1 mutation H352A (HCV genotype 1a, isolate H77) (UniProt P27958)
# [18] = target: E1E2 complex (H77) with E1 mutation S273A (HCV genotype 1a, isolate H77) (UniProt P27958)
# [19] = target: E1E2 complex (H77) with E2 mutation H617A (HCV genotype 1a, isolate H77) (UniProt P27958)
# [20] = target: E1E2 complex (H77) with E1 mutation H261A (HCV genotype 1a, isolate H77) (UniProt P27958)
# [21] = target: E1E2 complex (H77) with E1 mutation N196A/N234A (HCV genotype 1a, isolate H77) (UniProt P27958)
# [22] = target: E1E2 complex (H77) with E1 mutation M324A (HCV genotype 1a, isolate H77) (UniProt P27958)
# [23] = target: E1E2 complex (H77) with E1 mutation H316A (HCV genotype 1a, isolate H77) (UniProt P27958)
# [24] = target: E1E2 complex (H77) with E2 mutation G635A (HCV genotype 1a, isolate H77) (UniProt P27958)
# [25] = target: E1E2 complex (H77) with E2 mutation N623A (HCV genotype 1a, isolate H77) (UniProt P27958)
# [26] = target: E1E2 complex (H77) with E1 mutation A319G (HCV genotype 1a, isolate H77) (UniProt P27958)
# [27] = target: E1E2 complex (H77) with E1 mutation M318A (HCV genotype 1a, isolate H77) (UniProt P27958)
# [28] = target: E1E2 complex (H77) with E1 mutation W320A (HCV genotype 1a, isolate H77) (UniProt P27958)
# [29] = target: E1E2 complex (H77) with E1 mutation N209A (HCV genotype 1a, isolate H77) (UniProt P27958)
substance,measurement,setting,value
mouse anti-E1 MAb A4 (antibody),Binding relative to wt (%),[1],99%
same,Binding relative to wt (%),[2],105%
same,Binding relative to wt (%),[3],99%
same,Binding relative to wt (%),[4],90%
same,Binding relative to wt (%),[5],97%
same,Binding relative to wt (%),[6],117%
same,Binding relative to wt (%),[7],67%
same,Binding relative to wt (%),[8],50%
same,Binding relative to wt (%),[9],96%
same,Binding relative to wt (%),[10],87%
same,Binding relative to wt (%),[11],112%
same,Binding relative to wt (%),[12],157%
same,Binding relative to wt (%),[13],79%
same,Binding relative to wt (%),[14],134%
same,Binding relative to wt (%),[15],115%
same,Binding relative to wt (%),[16],114%
same,Binding relative to wt (%),[17],85%
same,Binding relative to wt (%),[18],38%
same,Binding relative to wt (%),[19],140%
same,Binding relative to wt (%),[20],96%
same,Binding relative to wt (%),[21],71%
same,Binding relative to wt (%),[22],80%
same,Binding relative to wt (%),[23],95%
same,Binding relative to wt (%),[24],109%
same,Binding relative to wt (%),[25],116%
same,Binding relative to wt (%),[26],101%
same,Binding relative to wt (%),[27],97%
same,Binding relative to wt (%),[28],105%
same,Binding relative to wt (%),[29],119%
